The results in this text go back to publication PMC8980629, “c-Abl kinase-mediated phosphorylation of γ-tubulin promotes γ-tubulin ring complexes assembly and microtubule nucleation” (The Journal of Biological Chemistry, 2022).

For this assay, the target named is T1, Flag-γ-tubulin (human, UniProt P23258 1-451).
T1 construct: γ-tubulin (tubg1), full-length cDNA amplified from an MCF-7 cDNA library, in a pcDNA3.0-based vector; also called wild-type Flag-γ-tubulin; source: HEK293T, transfected, in lysate; anti-Flag immunoprecipitated and resolved by SDS-PAGE for the far-Western; not shown: Flag, N-terminal, kept
As to the kind of experiment: far-Western, overlay or dot blot; anti-Flag immunoprecipitates from HEK293T resolved by SDS-PAGE and blotted onto PVDF; membrane incubated with purified GST or GST fusion protein 2 h at room temperature; probed with anti-GST. Conditions: both partners purified.

T1 sequence (P23258 whole entry): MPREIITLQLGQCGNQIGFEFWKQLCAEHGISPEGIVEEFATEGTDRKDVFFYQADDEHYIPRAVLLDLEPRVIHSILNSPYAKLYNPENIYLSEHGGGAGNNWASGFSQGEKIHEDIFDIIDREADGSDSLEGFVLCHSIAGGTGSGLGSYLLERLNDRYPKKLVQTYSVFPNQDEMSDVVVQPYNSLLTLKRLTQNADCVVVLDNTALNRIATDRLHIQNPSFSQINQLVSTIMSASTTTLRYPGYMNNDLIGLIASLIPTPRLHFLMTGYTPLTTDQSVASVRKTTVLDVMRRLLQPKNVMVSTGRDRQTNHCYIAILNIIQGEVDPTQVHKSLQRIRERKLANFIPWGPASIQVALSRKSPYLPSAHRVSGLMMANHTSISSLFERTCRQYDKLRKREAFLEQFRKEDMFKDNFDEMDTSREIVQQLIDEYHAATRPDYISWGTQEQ

B1: GST-c-Abl SH2 (domain or fragment, UniProt P00519 127-217, looked up)
chain: WYHGPVSRNAAEYLLSSGINGSFLVRESESSPGQRSISLRYEGRVYHYRINTASDGKLYVSSESRFNTLAELVHHHSTVADGLITTLHYPA
notes: SH2 domain of c-Abl; source: purified GST fusion protein; not shown: GST, N-terminal, kept
With B1, the binding result was “binds”.
